From paper PMC8786865 (Nature Communications, 2022)

The binders below were run against T1, SARS-CoV-2 spike receptor-binding domain (RBD) (SARS-CoV-2, Wuhan-Hu-1, UniProt P0DTC2) (assay: not given). Conditions: not given.

| Binder | binding result |
| --- | --- |
| E5 (antibody, V domains shown) VH: EVQLVQSGAEVKKPGASVKVSCKVSGYSFTDHSIHWVRQAPGKGLEWMGGINPYTGDTIYAQKFQGRVTMTEDTSTDTAYMELSSLKSEDTAVYYCAKDGWGSLLNGIAVAGLDYWGQGTLVTVSS VL: DIQMTQSPSSVSASVGDRVTITCRASQDISTYLAWYQQKPGKAPKLLIYASSNLASGVPSRFSGSGSGTDFTLTISSLQPEDFANYYCHQYATYPWGFGGGTKVEIK | binds |
| E4 (antibody, V domains shown) VH: QVQLVQSGAEVKKPGASVKVSCKVSGYSFTDHSIHWVRQAPGKGLEWMGGINPYTGDTIYAQKFQGRVTMTEDTSTDTAYMELSSLKSEDTAVYYCARDGYDFWSGSYGMDVWGQGTLVTVSS VL: DIQMTQSPSSVSASVGDRVTITCRASQDIGNHLAWYQQKPGKAPKLLIYASSNLASGVPSRFSGSGSGTDFTLTISSLQPEDFANYYCHQYATYPWTFGGGTKVEIK | binds |
| G8 (antibody, V domains shown) VH: EVQLVESGAEVKKPGASVKVSCKVSGYSFTDHSIHWVRQAPGKGLEWMGGINPYTGDTIYAQKFQGRVTMTEDTSTDTAYMELSSLKSEDTAVYYCARDGWGSLLNGIAVAGLDYWGQGTLVTVSS VL: DIQMTQSPSSVSASVGDRVTITCRASQSIGSFLAWYQQKPGKAPKLLIYASSNLASGVPSRFSGSGSGTDFTLTISSLQPEDFANYYCHQYATYPWTFGGGTKVEIK | binds |
| A2 (antibody, V domains shown) VH: QVQLVESGAEVKKPGASVKVSCKVSGYSFTDHSIHWVRQAPGKGLEWMGGINPYTGDTIYAQKFQGRVTMTEDTSTDTAYMELSSLKSEDTAVYYCARDGYCSGGSCYSFSGYGMDVWGQGTTVTVS VL: DIQMTQSPSSVSASVGDRVTITCRASQDIGNHLAWYQQKPGKAPKLLIYASSNLASGVPSRFSGSGSGTDFTLTISSLQPEDFANYYCHQYTTYPWTFGGGTKVEIK | binds |
| H5 (antibody, V domains shown) VH: EVQLVQSGAEVKKPGASVKVSCKVSGYSFTDHSIHWVHQAPGKGLEWMGGINPYTGDTIYAQKFQGRVTMTEDTSTDTAYMELSSLKSEDTAVYYCARDGYYGSGTYYYYGMDVWGQGTTVTVSS VL: DIQMTQSPSSVSASVGDRVTITCRASQSISTYLAWYQQKPGKAPKLLIYDASNRATGVPSRFSGSGSGTDFTLTISSLQPEDFANYYCLQYHNYPWTFGGGTKVEIK | binds |
| G9 (antibody, V domains shown) VH: QVQLVQSGAEVKKPGASVKVSCKVSGYSFTDHSIHWVRQAPGKGLEWMGGINPYTGDTIYAQKFQGRVTMTEDTSTDTAYMELSSLKSEDTAVYYCARDGYGDYRGLYGMDVWGRGTTVTVSS VL: DIQMTQSPSSVSASVGDRVTITCRASQDIGNHLAWYQQKPGKAPKLLIYASSNLASGVPSRFSGSGSGTDFTLTISSLQPEDFANYYCHQYATYPWTFGGGTKVEIK | binds |
| H7 (antibody, V domains shown) VH: EVQLVQSGAEVKKPGASVKVSCKVSGYSFTDHSIHWVRQAPGKGLEWMGGINPYTGDTIYAQKFQGRVTMTEDTSTDTAYMELSSLKSEDTAVYYCARDGYDFWSGSYGMDVWGQGAQVTVS VL: DIQMTQSPSSVSASVGDRVTITCRASQDIGNHLAWYQQKPGKAPKLLIYGVSERPSGVPSRFSGSGSGTDFTLTISSLQPEDFANYYCHQYATYPWTFGDGTKVEIK | binds |

These binders were tested against T1, SARS-CoV-2 spike receptor-binding … (assay: SPR; array SPR (Carterra LSA), HC200M chip; IgG captured on immobilised anti-human Fc; antigen as analyte in a 7-point series, RBD 300 nM to 411 pM or trimer 100 nM to 137 pM, in 1x HBSTE with 0.5 mg/mL BSA; association 5 min, dissociation 11 min; one-site model; constants for the trimer are called avidities). Conditions: both partners purified.

| Binder | binding result |
| --- | --- |
| selected anti-SARS-CoV-2 spike antibody G12 (antibody, V domains shown) VH: EVQLVQSGAEVKKPGASVKVSCKVSGYTFSNHAIHWVRQAPGKGLEWMGGINPNIGDTIYAQKFQGRVTMTEDTSTDTAYMELSSLKSEDTAVYYCARDGYGDYRGLYGMDVWGQGTTVTVSS VL: DIQMTQSPSSVSASVGDRVTITCRASQDIGNHLAWYQQKPGKAPKLLIYASSNLASGVPSRFSGSGSGTDFTLTISSLQPEDFANYYCHQYATYPWTFGGGTKVEIK | binds |
| selected anti-SARS-CoV-2 spike antibody G5 (antibody, V domains shown) VH: QVQLVQSGAEVKKPGASVKVSCKVSGYSFTDHSIHWVRQAPGKGLEWMGGINPYTGDTIYAQKFQGRVTMTEDTSTDTAYMELSSLKSEDTAVYYCARDGYSYGYLSGMDVWGQGTTVTVSS VL: DIQMTQSPSSVSASVGDRVTITCRASQDISHHLAWYQQKPGKAPKLLIYDASLRATGIPSRFSGSGSGTDFTLTISSLQPEDFANYYCHQYAAYPWTFGGGTKVEIK | binds |
| selected anti-SARS-CoV-2 spike antibody A10 (antibody, V domains shown) VH: QVQLVQSGAEVKKPGASVKVSCKVSGYSFTDHSIHWVRQAPGKGLEWMGGINPNIGDTIYAQKFQGRVTMTEDTSTDTAYMELSSLKSEDTAVYYCARDGYGDYRGLYGMDVWGQGTTVTVSS VL: DIQMTQSPSSVSASVGDRVTITCRASRDINKYLAWYQQKPGKAPKLLIYGESSRAAGVPSRFSGSGSGTDFTLTISSLQPEDFANYYCHQYATYPWTFGGGTKVEIK | binds |
| selected anti-SARS-CoV-2 spike antibody G4 (antibody, V domains shown) VH: QVQLVQSGAEVKKPGASVKVSCKVSGYTLSDHAIHWVRQAPGKGLEWMGGINPYTGDTIYAQKFQGRVTMTEDTSTDTAYMELSSLKSEDTAVYYCARDGYDFWSGSYGMDVWGQGTTVTVSS VL: DIQMTQSPSSVSASVGDRVTITCRASQDIGNHLAWYQQKPGKAPKLLIYASSNLASGVPSRFSGSGSGTDFTLTISSLQPEDFANYYCHQYATYPWTFGGGTKVEIK | binds |
| selected anti-SARS-CoV-2 spike antibody F5 (antibody, V domains shown) VH: EVQLVQSGAEVKKPGASVKVSCKVSGYTFSNHAIHWVRQAPGKGLEWMGGINPNIGDTIYAQKFQGRVTMTEDTSTDTAYMELSSLKSEDTAVYYCARDGYSGYVEGMDVWGQGTTVTVSS VL: DIQMTQSPSSVSASVGDRVTITCRASQNIHSYLAWYQQKPGKAPKLLIYDTSKLQSGVPSRFSGSGSGTDFTLTISSLQPEDFANYYCHQYAAYPWTFGGGTKVEIK | binds |
| selected anti-SARS-CoV-2 spike antibody F7 (antibody, V domains shown) VH: QVQLVQSGAEVKKPGASVKVSCKVSGYSFSTYTIHWVRQAPGKGLEWMGGINPYTGDTIYAQKFQGRVTMTEDTSTDTAYMELSSLKSEDTAVYYCARDGYSGYESSYYYYGMDVWGQGTTVTVSS VL: DIQMTQSPSSVSASVGDRVTITCRASQDIGNHLAWYQQKPGKAPKLLIYASSNLASGVPSRFSGSGSGTDFTLTISSLQPEDFANYYCHQYATYPWTFGGGTKVEIK | binds |
| selected anti-SARS-CoV-2 spike antibody D3 (antibody, V domains shown) VH: EVQLVQSGAEVKKPGASVKVSCKVSGYSFADYAIHWVRQAPGKGLEWMGGINPNIGDTIYAQKFQGRVTMTEDTSTDTAYMELSSLKSEDTAVYYCARDGYDFWSGSYGMDVWGQGTTVTVSS VL: DIQMTQSPSSVSASVGDRVTITCRASQDIGNHLAWYQQKPGKAPKLLIYASSNLASGVPSRFSGSGSGTDFTLTISSLQPEDFANYYCQQYSEYPWTFGGGTKVEIK | binds |
| selected anti-SARS-CoV-2 spike antibody H2 (antibody, V domains shown) VH: EVQLVQSGAEVKKPGASVKVSCKVSGYPFTRSTIHWVRQAPGKGLEWMGGINAGTGDTIYAQKFQGRVTMTEDTSTDTAYMELSSLKSEDTAVYYCARDGYSSGYYGMDVWGQGTLVTVSS VL: DIQMTQSPSSVSASVGDRVTITCRASQGISDFLAWYQQKPGKAPKLLIYGASNRATGVPSRFSGSGSGTDFTLTISSLQPEDFANYYCHQYATYPWTFGGGTKVEIK | binds |
| selected anti-SARS-CoV-2 spike antibody A12 (antibody, V domains shown) VH: EVQLVQSGAEVKKPGASVKVSCKVSGYSFTDHSIHWVRQAPGKGLEWMGGINPYTGDTIYAQKFQGRVTMTEDTSTDTAYMELSSLKSEDTAVYYCARDGWGSLLNGIAVAGLDYWGQGTLVTVSS VL: DIQMTQSPSSVSASVGDRVTITCRASQDIGNHLAWYQQKPGKAPKLLIYASSNLASGVPSRFSGSGSGTDFTLTISSLQPEDFANYYCHQYATYPWTFGGGTKVEIK | binds |
| selected anti-SARS-CoV-2 spike antibody F1 (antibody, V domains shown) VH: EVQLVQSGAEVKKPGASVKVSCKVSGYPFTSYAIHWVRQAPGKGLEWMGGITPYNADTIYAQKFQGRVTMTEDTSTDTAYMELSSLKSEDTAVYYCARDGYSSGYYGMDVWGQGTTVTVSS VL: DIQMTQSPSSVSASVGDRVTITCRASQDIGNHLAWYQQKPGKAPKLLIYASSNLASGVPSRFSGSGSGTDFTLTISSLQPEDFANYYCHQYATYPWTFGGGTKVEIK | binds |
| selected anti-SARS-CoV-2 spike antibody A11 (antibody, V domains shown) VH: QVQLVQSGAEVKKPGASVKVSCKVSGYSFTDHSIHWVRQAPGKGLEWMGGINPYTGDTIYAQKFQGRVTMTEDTSTDTAYMELSSLKSEDTAVYYCARDGYSYGYLSGMDVWGQGTTVTVSS VL: DIQMTQSPSSVSASVGDRVTITCRASQDIGNHLAWYQQKPGKAPKLLIYASSNLASGVPSRFSGSGSGTDFTLTISSLQPEDFANYYCHQYATYPWTFGGGTKVEIK | binds |
| selected anti-SARS-CoV-2 spike antibody G6 (antibody, V domains shown) VH: EVQLVESGAEVKKPGASVKVSCKVSGYTFSNHAIHWVRQAPGKGLEWMGGINPNIGDTIYAQKFQGRVTMTEDTSTDTAYMELSSLKSEDTAVYYCARDGYPGDYSGLDVWGQGTLVTVSS VL: DIQMTQSPSSVSASVGDRVTITCRASQPISSYLAWYQQKPGKAPKLLIYEASKLQSGVPSRFSGSGSGTDFTLTISSLQPEDFANYYCHQYATYPWTFGGGTKVEIK | binds |
| selected anti-SARS-CoV-2 spike antibody G2 (antibody, V domains shown) VH: QVQLVQSGAEVKKPGASVKVSCKVSGYTFTANAIHWVRQAPGKGLEWMGGIGPGQGDTIYAQKFQGRVTMTEDTSTDTAYMELSSLKSEDTAVYYCARDGHCSGGSCPSGMDVWGQGTTVTVSS VL: DIQMTQSPSSVSASVGDRVTITCRASQDIGNHLAWYQQKPGKAPKLLIYGASIRESGVPSRFSGSGSGTDFTLTISSLQPEDFANYYCQQYSAFPWTFGGGTKVEIK | binds |
| selected anti-SARS-CoV-2 spike antibody B2 (antibody, V domains shown) VH: QVQLVQSGAEVKKPGASVKVSCKVSGYSFTDHSIHWVRQAPGKGLEWMGGINPYTGDTIYAQKFQGRVTMTEDTSTDTAYMELSSLKSEDTAVYYCARDAYSGSYPYYYYGMDVWGQGTTVTVSS VL: DIQMTQSPSSVSASVGDRVTITCRASEGISNYLAWYQQKPGKAPKLLIYGTSDRASGIPSRFSGSGSGTDFTLTISSLQPEDFANYYCQQYSAFPWTFGGGTKVEIK | binds |
